Tests used:
[1] = target: HCV NS3 protein (Hepatitis C virus) (UniProt P27958); test: pulldown; settings: magnetic bead pulldown with q-PCR; BD buffer, room temperature
[2] = target: Hepatitis B surface antigen (HBsAg) (Hepatitis B virus) (UniProt P03138); test: pulldown; settings: magnetic bead pulldown with q-PCR; BD buffer, room temperature

Sequence of HCV NS3 protein (Hepatitis C virus) (P27958 1027-1657): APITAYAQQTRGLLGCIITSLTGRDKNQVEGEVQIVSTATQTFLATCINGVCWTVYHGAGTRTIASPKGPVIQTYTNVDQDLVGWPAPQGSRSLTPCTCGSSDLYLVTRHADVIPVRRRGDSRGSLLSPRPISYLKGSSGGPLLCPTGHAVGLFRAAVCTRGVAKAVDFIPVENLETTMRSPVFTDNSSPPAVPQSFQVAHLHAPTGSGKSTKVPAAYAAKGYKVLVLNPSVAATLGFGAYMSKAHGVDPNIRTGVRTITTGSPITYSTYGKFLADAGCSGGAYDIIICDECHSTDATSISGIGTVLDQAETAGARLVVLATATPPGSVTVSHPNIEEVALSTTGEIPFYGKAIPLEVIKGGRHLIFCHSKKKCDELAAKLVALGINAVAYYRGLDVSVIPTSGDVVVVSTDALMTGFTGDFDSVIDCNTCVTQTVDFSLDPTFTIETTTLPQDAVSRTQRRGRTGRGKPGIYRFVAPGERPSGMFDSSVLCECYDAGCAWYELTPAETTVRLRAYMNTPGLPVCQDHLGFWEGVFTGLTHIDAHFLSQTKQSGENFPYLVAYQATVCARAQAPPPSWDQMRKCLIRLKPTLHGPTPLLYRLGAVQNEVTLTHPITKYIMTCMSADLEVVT

Sequence | Kd [1] [µM] | Kd [2] [µM]
AGCAGCACAGAGGTCCCCATGTCCACCTTTCTGTGGCGTGCTACCGTGAA [K3-1] | 0.0159 | –
AGCAGCACAGAGGTCCCAACCGGAATCTGCACCTCGCGTGCTACCGTGAA [K2-4] | – | 0.0314
AGCAGCACAGAGGTCCTGCATCACGAAGCCTGGCAGCGTGCTACCGTGAA [MP-1] | 0.0233 | 0.0283
